Test results reported in patent publication US20170266311A1 (published 2017).
Blank lines part the entries; values can stand above or below the binder they belong to.

Columns and labels:
[1] = target: T1, human NaPi2b (sodium-dependent phosphate transport protein 2B, SLC34A2) (human, UniProt O95436 1-690); experiment: flow cytometry on OVCAR3 cells, Alexa Fluor 647 goat anti-human IgG detection, one site specific binding fit
T1 construct: also called NaPiIIb; Npt2
T1 sequence: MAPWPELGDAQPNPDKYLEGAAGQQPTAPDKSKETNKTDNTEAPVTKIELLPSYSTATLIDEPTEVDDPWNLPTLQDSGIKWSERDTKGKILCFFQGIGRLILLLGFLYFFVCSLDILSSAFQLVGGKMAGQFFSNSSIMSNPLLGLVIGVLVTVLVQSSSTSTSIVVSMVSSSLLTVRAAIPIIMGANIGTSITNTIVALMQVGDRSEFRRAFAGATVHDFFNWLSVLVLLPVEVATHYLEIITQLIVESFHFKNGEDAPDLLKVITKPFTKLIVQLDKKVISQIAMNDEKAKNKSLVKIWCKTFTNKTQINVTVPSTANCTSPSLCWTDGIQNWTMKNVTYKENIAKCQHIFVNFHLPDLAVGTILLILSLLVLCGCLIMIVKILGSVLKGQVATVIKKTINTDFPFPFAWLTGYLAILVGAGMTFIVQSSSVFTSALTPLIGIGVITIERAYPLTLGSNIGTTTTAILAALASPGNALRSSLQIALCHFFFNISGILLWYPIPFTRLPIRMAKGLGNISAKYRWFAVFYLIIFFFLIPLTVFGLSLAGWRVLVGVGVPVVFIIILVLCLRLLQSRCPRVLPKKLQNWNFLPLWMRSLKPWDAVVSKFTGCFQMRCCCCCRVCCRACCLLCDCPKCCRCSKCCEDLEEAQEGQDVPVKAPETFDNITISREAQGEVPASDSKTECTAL
Description: (§1) TOV-21G or OVCAR3 cells were grown overnight to approximately 90% confluent cultures in media, then were released from the plate surface by treatment with Trypsin-EDTA (Gibco-Thermo Fisher Scientific, USA). The detached cells were washed once with ice cold media containing 6% goat serum and resuspended in the same media. 50,000 cells were aliquoted per well of a V-bottom, 96-well plate and incubated with a range of test articles concentrations (0.23-500 nM) in 100 μl Media (1:1 mixture MCDB105 (1.5 g/L sodium bicarbonate) and Medium 199 (2.2 g/L sodium bicarbonate plus 15% FBS)) with 6% goat serum on ice for 3 hours. The cells were then washed once with ice cold PBS and resuspended in 150 μl Media with 2% goat serum and 6 μg/ml of a secondary fluorescently labeled antibody, Alexa Fluor® 647-labelled goat anti-human IgG (Life Technologies, Cat# A-21445) for 1 hour on ice. The cells were washed once with ice cold PBS and suspended in 150 μl of ice cold PBS with 1% paraformaldehyde. The amount of fluorescence bound per cell was determined by running 5000 cells for each treatment on a MACSQuant flow cytometer (Miltenyi Biotec, Bergisch Gladbach, Germany). The median fluorescence value for each treatment was graphed, and the binding constant, KD was calculated for each test article with GraphPad Prism software by non-linear regression using the one site specific binding model.

[2] = target: T1, human NaPi2b (sodium-dependent …); experiment: flow cytometry on TOV-21G cells, Alexa Fluor 647 goat anti-human IgG detection, one site specific binding fit
Description: as §1

- Kd [1]: 6.59 nM
- Kd [2]: 2.46 nM
B1: XMT 1535 antibody (antibody, human IgG1, kappa, V domains shown)
VH: QVQLVQSGAEVVKPGASVKMSCKASGYTFTGYNIHWVKQAPGQGLEWIGAIYPGNGDTSYKQKFRGRATLTADTSTSTVYMELSSLRSEDSAVYYCARGETARATFAYWGQGTLVTVSS
VL: DIQMTQSPSSLSASVGDRVTITCSASQDIGNFLNWYQQKPGKTVKVLIYYTSSLYSGVPSRFSGSGSGTDYTLTISSLQPEDFATYYCQQYSKLPLTFGQGTKLELKR
notes: Full IgG1

- Kd [1]: 3.84 nM
- Kd [2]: 3.97 nM
B2: Example 1C, XMT 1535-(EG2-MI-(10 kDa PHF-BA-(AF-HPA-Ala))) (antibody, human IgG1, kappa, V domains shown)
VH: B1 VH
VL: B1 VL
modifications: EG2-MI-(10 kDa PHF-BA-(AF-HPA-Ala)) polymer-drug scaffolds attached by maleimide to cysteines of the partially reduced antibody; positions and chain not stated; DAR about 11:1 to about 15:1
